IntAct's records for PubMed 16697956

B1: BH3-interacting domain death agonist (Homo sapiens), P55957 (parent)
chain: MDCEVNNGSSLRDECITNLLVFGFLQSCSDNSFRRELDALGHELPVLAPQWEGYDELQTDGNRSSHSRLGRIEADSESQEDIIRNIARHLAQVGDSMDRSIPPGLVNGLALQLRNTSRSEEDRNRDLATALEQLLQAYPRDMEKEKTMLVLALLLAKKVASHTPSLLRDVFHTTVNFINQNLRTYVRSLARNGMD
partner: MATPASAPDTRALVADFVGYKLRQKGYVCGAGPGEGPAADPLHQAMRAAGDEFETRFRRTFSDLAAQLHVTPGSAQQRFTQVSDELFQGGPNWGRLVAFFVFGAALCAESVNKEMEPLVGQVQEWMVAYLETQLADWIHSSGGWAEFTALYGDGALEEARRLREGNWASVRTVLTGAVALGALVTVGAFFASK
B2: BH3-interacting domain death agonist (Homo sapiens), P55957 (parent)
chain: B1 chain
partner: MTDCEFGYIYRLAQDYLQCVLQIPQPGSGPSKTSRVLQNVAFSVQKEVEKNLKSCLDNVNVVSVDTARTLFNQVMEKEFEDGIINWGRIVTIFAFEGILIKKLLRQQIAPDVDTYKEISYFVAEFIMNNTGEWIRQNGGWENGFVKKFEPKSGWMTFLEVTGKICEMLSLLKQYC
B3: Bcl-2-like protein 2 (Homo sapiens), Q92843 (parent)
chain: B1 partner
B4: BH3-interacting domain death agonist (Homo sapiens), P55957 (parent)
chain: B1 chain

Variants of: B1
Conditions: with BCL2L2, Q92843

| Variant | effect of a mutation on the interaction |
| --- | --- |
| MDCEVNNGSSLRDECITNLLVFGFLQSCSDNSFRRELDALGHELPVLAPQWEGYDELQTDGNRSSHSRLGRIEADSESQEDIIRNIARHAAQVGASMDRSIPPGLVNGLALQLRNTSRSEEDRNRDLATALEQLLQAYPRDMEKEKTMLVLALLLAKKVASHTPSLLRDVFHTTVNFINQNLRTYVRSLARNGMD | disrupting interaction |

Variants of: B2
Conditions: with BCL2A1, Q16548

| Variant | effect of a mutation on the interaction |
| --- | --- |
| MDCEVNNGSSLRDECITNLLVFGFLQSCSDNSFRRELDALGHELPVLAPQWEGYDELQTDGNRSSHSRLGRIEADSESQEDIIRNIARHAAQVGASMDRSIPPGLVNGLALQLRNTSRSEEDRNRDLATALEQLLQAYPRDMEKEKTMLVLALLLAKKVASHTPSLLRDVFHTTVNFINQNLRTYVRSLARNGMD | disrupting interaction |

Variants of: B3
Conditions: with bid_mouse Bid

| Variant | effect of a mutation on the interaction |
| --- | --- |
| MATPASAPDTRALVADFVGYKLRQKGYVCGAGPGEGPAADPLHQAMRAAGDEFETRFRRTFSDLAAQLHVTPGSAQQRFTQVSDELFQGGPNWGPLVAFFVFGAALCAESVNKEMEPLVGQVQEWMVAYLETQLADWIHSSGGWAEFTALYGDGALEEARRLREGNWASVRTVLTGAVALGALVTVGAFFASK | disrupting interaction |

Variants of: B4
Conditions: with bcl2_human BCL2, P10415
bcl2_human BCL2, P10415, sequence (P10415 whole entry): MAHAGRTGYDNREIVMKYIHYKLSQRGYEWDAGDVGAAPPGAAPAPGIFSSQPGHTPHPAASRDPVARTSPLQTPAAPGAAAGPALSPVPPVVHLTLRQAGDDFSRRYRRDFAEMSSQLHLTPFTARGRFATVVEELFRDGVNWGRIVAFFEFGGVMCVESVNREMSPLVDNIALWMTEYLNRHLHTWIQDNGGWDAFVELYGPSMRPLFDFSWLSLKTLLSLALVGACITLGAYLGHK

| Variant | effect of a mutation on the interaction |
| --- | --- |
| MDCEVNNGSSLRDECITNLLVFGFLQSCSDNSFRRELDALGHELPVLAPQWEGYDELQTDGNRSSHSRLGRIEADSESQEDIIRNIARHAAQVGASMDRSIPPGLVNGLALQLRNTSRSEEDRNRDLATALEQLLQAYPRDMEKEKTMLVLALLLAKKVASHTPSLLRDVFHTTVNFINQNLRTYVRSLARNGMD | disrupting interaction |

Variants of: B4
Conditions: with BCL2L1, Q07817
BCL2L1, Q07817, sequence (Q07817 whole entry): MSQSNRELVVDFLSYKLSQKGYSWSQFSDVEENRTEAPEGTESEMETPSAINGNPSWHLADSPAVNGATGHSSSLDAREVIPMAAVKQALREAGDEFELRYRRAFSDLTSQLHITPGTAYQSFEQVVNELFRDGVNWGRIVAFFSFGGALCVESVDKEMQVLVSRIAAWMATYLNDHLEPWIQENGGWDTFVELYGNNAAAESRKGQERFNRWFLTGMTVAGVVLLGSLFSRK

| Variant | effect of a mutation on the interaction |
| --- | --- |
| MDCEVNNGSSLRDECITNLLVFGFLQSCSDNSFRRELDALGHELPVLAPQWEGYDELQTDGNRSSHSRLGRIEADSESQEDIIRNIARHAAQVGASMDRSIPPGLVNGLALQLRNTSRSEEDRNRDLATALEQLLQAYPRDMEKEKTMLVLALLLAKKVASHTPSLLRDVFHTTVNFINQNLRTYVRSLARNGMD | disrupting interaction |

Variants of: B4
Conditions: with mcl1_human MCL1, Q07820
mcl1_human MCL1, Q07820, sequence (Q07820 whole entry): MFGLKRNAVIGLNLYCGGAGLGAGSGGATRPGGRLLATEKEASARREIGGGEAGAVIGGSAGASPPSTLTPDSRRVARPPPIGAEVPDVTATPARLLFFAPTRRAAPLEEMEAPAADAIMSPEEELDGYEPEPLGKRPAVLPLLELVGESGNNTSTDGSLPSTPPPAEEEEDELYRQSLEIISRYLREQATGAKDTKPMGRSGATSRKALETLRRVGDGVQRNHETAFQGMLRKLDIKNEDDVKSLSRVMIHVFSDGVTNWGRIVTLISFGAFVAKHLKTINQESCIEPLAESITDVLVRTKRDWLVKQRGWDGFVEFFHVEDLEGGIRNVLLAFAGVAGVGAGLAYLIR

| Variant | effect of a mutation on the interaction |
| --- | --- |
| MDCEVNNGSSLRDECITNLLVFGFLQSCSDNSFRRELDALGHELPVLAPQWEGYDELQTDGNRSSHSRLGRIEADSESQEDIIRNIARHAAQVGASMDRSIPPGLVNGLALQLRNTSRSEEDRNRDLATALEQLLQAYPRDMEKEKTMLVLALLLAKKVASHTPSLLRDVFHTTVNFINQNLRTYVRSLARNGMD | disrupting interaction |
